{"source": "paper PMC2856898", "about": "(The Journal of Cell Biology, 2010)", "binders": {"B1": {"name": "Nsl1 (subunit of the recombinant Mis12 complex) (natural protein, human, UniProt Q96IY1 1-281, looked up)", "chain": "MAGSPELVVLDPPWDKELAAGTESQALVSATPREDFRVRCTSKRAVTEMLQLCGRFVQKLGDALPEEIREPALRDAQWTFESAVQENISINGQAWQEASDNCFMDSDIKVLEDQFDEIIVDIATKRKQYPRKILECVIKTIKAKQEILKQYHPVVHPLDLKYDPDPAPHMENLKCRGETVAKEISEAMKSLPALIEQGEGFSQVLRMQPVIHLQRIHQEVFSSCHRKPDAKPENFITQIETTPTETASRKTSDMVLKRKQTKDCPQRKWYPLRPKKINLDT"}, "B2": {"name": "Nnf1 (subunit of the recombinant Mis12 complex) (natural protein, human, UniProt Q6P1K2 1-205, looked up)", "chain": "MAEASSANLGSGCEEKRHEGSSSESVPPGTTISRVKLLDTMVDTFLQKLVAAGSYQRFTDCYKCFYQLQPAMTQQIYDKFIAQLQTSIREEISDIKEEGNLEAVLNALDKIVEEGKVRKEPAWRPSGIPEKDLHSVMAPYFLQQRDTLRRHVQKQEAENQQLADAVLAGRRQVEELQLQVQAQQQAWQALHREQRELVAVLREPE"}, "B3": {"name": "Mis12 (subunit of the recombinant Mis12 complex) (natural protein, human, UniProt Q9H081 1-205, looked up)", "chain": "MSVDPMTYEAQFFGFTPQTCMLRIYIAFQDYLFEVMQAVEQVILKKLDGIPDCDISPVQIRKCTEKFLCFMKGHFDNLFSKMEQLFLQLILRIPSNILLPEDKCKETPYSEEDFQHLQKEIEQLQEKYKTELCTKQALLAELEEQKIVQAKLKQTLTFFDELHNVGRDHGTSDFRESLVSLVQNSRKLQNIRDNVEKESKRLKIS"}}, "data": [{"target": "T1, His6-Dsn1 (subunit of the recombinant Mis12 complex) (human, UniProt Q9H410 1-356)", "T1 sequence (looked up)": "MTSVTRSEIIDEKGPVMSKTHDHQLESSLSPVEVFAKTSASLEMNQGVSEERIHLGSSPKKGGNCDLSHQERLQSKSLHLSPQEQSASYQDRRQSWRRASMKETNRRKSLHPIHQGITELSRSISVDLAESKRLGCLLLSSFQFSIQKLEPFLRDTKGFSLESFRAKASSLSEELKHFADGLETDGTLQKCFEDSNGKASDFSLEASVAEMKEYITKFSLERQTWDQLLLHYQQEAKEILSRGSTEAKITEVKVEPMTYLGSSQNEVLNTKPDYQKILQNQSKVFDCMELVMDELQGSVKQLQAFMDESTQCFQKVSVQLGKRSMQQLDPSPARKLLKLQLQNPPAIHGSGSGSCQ", "assay": "co-sedimentation", "values": [{"binder": "B1", "binding result": "binds"}, {"binder": "B2", "binding result": "binds"}, {"binder": "B3", "binding result": "binds"}]}]}
